Values quoted from earlier work, collected in PMC8006918.
Where two headings read alike, the source gives them in different places. Values belong to the substance of their own block, whether it stands above or below them.

Experiments:
[1] = target: Tenascin-C (Homo sapiens) (UniProt P24821)
[2] = target: Tenascin-C (Homo sapiens) (UniProt P24821); remark: listed apart in the source
[3] = target: Tenascin-C (Homo sapiens) (UniProt P24821); remark: listed apart in the source

Sequence of Tenascin-C (Homo sapiens) (P24821 23-2201): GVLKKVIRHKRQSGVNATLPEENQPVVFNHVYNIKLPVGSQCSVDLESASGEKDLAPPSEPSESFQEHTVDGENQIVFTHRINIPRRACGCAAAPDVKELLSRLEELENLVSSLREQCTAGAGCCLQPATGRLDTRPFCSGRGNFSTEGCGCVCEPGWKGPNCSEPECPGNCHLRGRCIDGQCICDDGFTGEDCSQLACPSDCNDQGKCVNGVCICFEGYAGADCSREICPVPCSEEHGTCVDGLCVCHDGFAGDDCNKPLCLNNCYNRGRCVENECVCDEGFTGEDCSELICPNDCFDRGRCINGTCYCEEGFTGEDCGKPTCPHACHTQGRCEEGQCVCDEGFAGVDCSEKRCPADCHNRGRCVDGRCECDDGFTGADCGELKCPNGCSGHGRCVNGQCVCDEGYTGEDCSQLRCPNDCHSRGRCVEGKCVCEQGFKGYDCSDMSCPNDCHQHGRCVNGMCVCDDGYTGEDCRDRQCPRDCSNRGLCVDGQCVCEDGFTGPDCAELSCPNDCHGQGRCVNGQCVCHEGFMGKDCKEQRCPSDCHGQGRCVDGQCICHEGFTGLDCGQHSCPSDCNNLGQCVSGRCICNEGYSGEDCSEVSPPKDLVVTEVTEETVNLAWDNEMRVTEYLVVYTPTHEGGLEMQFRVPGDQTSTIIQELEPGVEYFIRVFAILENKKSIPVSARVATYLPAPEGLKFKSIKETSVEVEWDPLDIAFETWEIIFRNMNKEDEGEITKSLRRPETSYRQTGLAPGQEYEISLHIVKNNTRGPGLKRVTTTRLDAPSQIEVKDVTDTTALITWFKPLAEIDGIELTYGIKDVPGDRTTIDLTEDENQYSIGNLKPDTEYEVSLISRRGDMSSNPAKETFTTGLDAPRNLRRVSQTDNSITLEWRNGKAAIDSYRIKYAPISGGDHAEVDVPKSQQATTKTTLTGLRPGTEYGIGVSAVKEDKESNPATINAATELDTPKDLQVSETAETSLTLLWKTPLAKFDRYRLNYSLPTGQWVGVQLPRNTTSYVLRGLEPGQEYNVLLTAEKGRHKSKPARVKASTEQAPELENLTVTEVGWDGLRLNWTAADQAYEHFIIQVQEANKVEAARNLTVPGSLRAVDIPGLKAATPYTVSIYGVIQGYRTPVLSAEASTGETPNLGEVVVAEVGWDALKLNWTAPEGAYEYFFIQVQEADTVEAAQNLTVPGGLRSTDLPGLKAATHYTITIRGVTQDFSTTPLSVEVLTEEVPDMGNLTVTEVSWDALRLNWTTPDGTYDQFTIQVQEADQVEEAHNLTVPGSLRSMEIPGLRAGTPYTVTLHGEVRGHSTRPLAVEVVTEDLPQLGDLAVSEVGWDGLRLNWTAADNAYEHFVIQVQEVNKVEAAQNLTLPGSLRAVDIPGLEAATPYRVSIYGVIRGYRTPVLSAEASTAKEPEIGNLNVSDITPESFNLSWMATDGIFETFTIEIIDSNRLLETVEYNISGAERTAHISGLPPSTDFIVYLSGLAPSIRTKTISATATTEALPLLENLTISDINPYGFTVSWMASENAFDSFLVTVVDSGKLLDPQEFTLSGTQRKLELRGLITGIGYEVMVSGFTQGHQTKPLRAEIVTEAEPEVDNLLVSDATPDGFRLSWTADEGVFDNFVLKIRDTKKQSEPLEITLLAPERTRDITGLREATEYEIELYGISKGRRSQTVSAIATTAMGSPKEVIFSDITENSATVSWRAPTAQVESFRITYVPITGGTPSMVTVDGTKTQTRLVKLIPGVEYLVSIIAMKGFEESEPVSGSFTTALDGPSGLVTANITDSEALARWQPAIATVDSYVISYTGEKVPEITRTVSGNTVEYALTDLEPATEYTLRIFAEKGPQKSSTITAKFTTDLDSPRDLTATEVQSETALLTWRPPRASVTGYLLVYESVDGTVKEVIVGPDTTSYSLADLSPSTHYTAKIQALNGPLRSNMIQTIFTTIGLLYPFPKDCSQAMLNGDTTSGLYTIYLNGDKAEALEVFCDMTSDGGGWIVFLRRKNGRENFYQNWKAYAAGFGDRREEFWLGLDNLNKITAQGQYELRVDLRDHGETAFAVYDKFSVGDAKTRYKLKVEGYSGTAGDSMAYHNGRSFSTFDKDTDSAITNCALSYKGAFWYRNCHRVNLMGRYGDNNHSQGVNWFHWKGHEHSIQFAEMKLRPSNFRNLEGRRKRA
Sequence of TGF-β1 (P01137 279-390): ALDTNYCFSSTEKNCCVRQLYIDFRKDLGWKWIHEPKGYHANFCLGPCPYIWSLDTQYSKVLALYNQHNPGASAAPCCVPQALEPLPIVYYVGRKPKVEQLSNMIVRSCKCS
Sequence of Fibronectin FN III13 (P02751 1904-1992): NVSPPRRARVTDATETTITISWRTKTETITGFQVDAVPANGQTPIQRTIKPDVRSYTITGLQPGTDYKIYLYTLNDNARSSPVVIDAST
Sequence of CCL21 (O00585 24-134): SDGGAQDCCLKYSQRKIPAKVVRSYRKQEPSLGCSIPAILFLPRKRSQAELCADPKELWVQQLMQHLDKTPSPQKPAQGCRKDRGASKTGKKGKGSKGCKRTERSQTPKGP

Kd [1]: 0.058 µM
Substance: CCL21 (from UniProt O00585)

Kd [2]: 0.0203 µM
Substance: TGF-β1 (from UniProt P01137)

Kd [3]: 0.128 µM
Substance: Fibronectin FN III13 (from UniProt P02751)
